Changes are numbered by the printed parent chain. One block for each binder: values may come before it.
Target: T1, peanut (Arachis hypogaea) allergen Ara h 6 (Arachis hypogaea) (UniProt Q647G9)
T1 sequence: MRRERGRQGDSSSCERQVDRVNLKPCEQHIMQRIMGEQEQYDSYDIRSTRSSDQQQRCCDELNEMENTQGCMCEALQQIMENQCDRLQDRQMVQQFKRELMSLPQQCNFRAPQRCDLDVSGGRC
Experiment: EC50 of IgE mAb on allergen, Table 1; method not stated

B1: human IgE mAb 8F3 (antibody, from a related filing, V domains shown)
VH: QLQLQESGPGLVKPSETLSLTCTVSDASIDTPSYFWSWIRQPPGKGLEWIGSIYYTGNKYSNPSLKSRVTMSVDTPKRQFSLRLSSVTAADTAVYYCARYVDYVWLRAFDIWGQGTRVTVSS
VL: EIVLTQSPATLSLSPGERATLSCRASPSAGRFLAWYQQRPGQAPRLLIYDASKRATDTPARFSGSGSGTDFNLTIASLEPEDFAVYYCQHRSNWPLTFGGGTKVEIK
EC50: 3.8 ng/mL

B2: human IgE mAb 1A8 (antibody, from a related filing, V domains shown)
VH: QLQLQESGPGLVKPSETLSLTCSVSDDSISTPSYFWTWIRQPPGKGLEWIASIYYTGTTYYNPSLKSRVTLSVDTPKRQFFLRLSSVTAADTAVYYCARYLDYVWLRAFDVWGQGAMVTVSS
VL: B1 VL with A29V, R39K, K53Q, T58I, G64A, N72T, A76D, V85I, L96V, K103R
EC50: 5 ng/mL

B3: human IgE mAb 20M10 (antibody, from a related filing, V domains shown)
VH: EVQLVESGGGLVKPGGSLRLSCTVSGFTFNMHSMNWVRQAPGKGLEWVSFISSTSTYIYYPDSVKGRFTVSRDNSKNSLYLQMTSLRAEDTAVYYCVRRGRGGAARALDNWGQGTLVTVSS
VL: SYVLPQTPSLSVAPGQTATISCGGNNTGSKSVHWYQQKPGQAPLLVVYDNSDRPSGIPERFSGSNSGNTATLTLSRVEAEDEADYYCQVWDSTIDHVIFGGGTKLTVL
EC50: 5.3 ng/mL

B6: human IgE mAb 21C10 (antibody, from a related filing, V domains shown)
VH: EVQLVESGGGLVKPGGSLRLSCAASGFILSRSSMSWVRQAPGKGLEWVSYISSTSSHIYYADSLKGRFTISRDNTENSVYLQMSSLRAEDTGVYYCARKTNGAWFLDLWGRGTLVTVSS
VL: QSVLTQPPSVSGAPGQRVTISCTGSSSNIGAGSDVHWYQQFPGSAPHVLIYGNNQRPSGVPDRFSASKSGTSASLAITGLQADDEADYYCQSYDYDLSGSWVFGGGTKLTVL
EC50: 3.2 ng/mL

Further lines, results first:

EC50: 31.5 ng/mL
B4: human IgE mAb 15C2 (antibody, from a related filing, V domains shown)
VH: QVQLVQSESELKKPGASVKISCKASGYDLTKYAMNWVRQAPGQGLEWMGWINTNTAKPTYAQGFTGRFVFSLDTSVRTIYLEISNLKAEDTAIYYCSRDGSGASWGQGTLVTVSS
VL: DIQMTQSPSTLSASVGDRVTITCRASQNIGRWLAWHQQKPGKAPKVLITKASNLESGVPSRFTGSGSGTDFTLTITSLQPDDFATYYCQQYTTYSGTFGQGTRVEIK

EC50: 10.1 ng/mL
B5: human IgE mAb 26A5 (antibody, from a related filing, V domains shown)
VH: QVQLVQSGSELRKPGASVKVSCKASGYTFTKYGMNWVRQAPGQGLEWMGWINTNTAKPTYAQDFTGRFVFSLDTSVNTAYLEISGLKAEDTAVYYCATDGSEGSWGQGTLVTVSS
VL: B4 VL with N28S, R31T, K42T, T49Y, E55K, T63S, T76S, F83V, T92N

From patent US20240390486A1
